What all share (conditions): both partners purified
One experiment concerns the target T1, DIP-β isoform C (Drosophila melanogaster).
T1 construct: Monomeric protein was used for SPR; also called DIP-β-C
Put plainly: SPR; Biacore T100, CM4 chip; DIPs immobilised by amine coupling (700-900 RU), monomeric Dpr analytes in 3-fold dilution series (0.012 to 9, 27 or 81 µM); 25 °C; 10 mM Tris-HCl pH 7.2, 150 mM NaCl, 1 mM EDTA, 1 mg/mL BSA, 0.01% Tween-20; equilibrium responses fit to a 1:1 model. On the technique in general: SPR reads the build-up and loss of mass on a sensor chip optically.

A further experiment concerns the target T2, DIP-β isoform G (Drosophila melanogaster).
T2 construct: has an 11 amino acid deletion in the first Ig domain relative to DIP-β-C; Monomeric protein was used for SPR; also called DIP-β-G; not shown: His6, C-terminal, kept
T2 chain: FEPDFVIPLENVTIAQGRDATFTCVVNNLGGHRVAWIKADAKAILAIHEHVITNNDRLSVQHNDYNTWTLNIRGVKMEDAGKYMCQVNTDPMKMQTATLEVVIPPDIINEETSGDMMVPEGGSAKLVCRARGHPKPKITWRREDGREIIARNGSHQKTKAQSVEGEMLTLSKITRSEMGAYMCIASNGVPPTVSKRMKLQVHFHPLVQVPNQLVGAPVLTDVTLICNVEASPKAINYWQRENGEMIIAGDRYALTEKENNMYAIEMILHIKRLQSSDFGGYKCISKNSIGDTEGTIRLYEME
Described as above.

For experiment [1], the target named is T3, DIP-β-G recombinant protein for SPR (printed sequence) (Drosophila melanogaster).
T3 construct: DIP-β isoform G, Drosophila melanogaster; Monomeric protein was used for SPR; immobilised by amine coupling; also called Isoform G of DIP-β; not shown: His6, C-terminal, kept
T3 chain: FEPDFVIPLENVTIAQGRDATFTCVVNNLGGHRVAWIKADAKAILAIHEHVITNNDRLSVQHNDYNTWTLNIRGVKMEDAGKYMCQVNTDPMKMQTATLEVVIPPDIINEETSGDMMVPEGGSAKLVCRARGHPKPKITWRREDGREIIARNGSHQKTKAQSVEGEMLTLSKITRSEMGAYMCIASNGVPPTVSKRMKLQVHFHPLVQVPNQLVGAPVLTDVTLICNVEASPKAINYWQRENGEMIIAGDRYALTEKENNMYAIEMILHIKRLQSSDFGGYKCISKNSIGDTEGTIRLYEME
Put plainly: SPR; Biacore T100, CM4 chip; DIPs immobilised by amine coupling (700-900 RU), monomeric Dpr analytes in 3-fold dilution series; 25 °C; 10 mM Tris-HCl pH 7.2, 150 mM NaCl, 1 mM EDTA, 1 mg/mL BSA, 0.01% Tween-20; equilibrium responses fit to a 1:1 model.

As usually defined, the Kd is the concentration at which binding is half-saturated.

T1 sequence (main, as listed by the source): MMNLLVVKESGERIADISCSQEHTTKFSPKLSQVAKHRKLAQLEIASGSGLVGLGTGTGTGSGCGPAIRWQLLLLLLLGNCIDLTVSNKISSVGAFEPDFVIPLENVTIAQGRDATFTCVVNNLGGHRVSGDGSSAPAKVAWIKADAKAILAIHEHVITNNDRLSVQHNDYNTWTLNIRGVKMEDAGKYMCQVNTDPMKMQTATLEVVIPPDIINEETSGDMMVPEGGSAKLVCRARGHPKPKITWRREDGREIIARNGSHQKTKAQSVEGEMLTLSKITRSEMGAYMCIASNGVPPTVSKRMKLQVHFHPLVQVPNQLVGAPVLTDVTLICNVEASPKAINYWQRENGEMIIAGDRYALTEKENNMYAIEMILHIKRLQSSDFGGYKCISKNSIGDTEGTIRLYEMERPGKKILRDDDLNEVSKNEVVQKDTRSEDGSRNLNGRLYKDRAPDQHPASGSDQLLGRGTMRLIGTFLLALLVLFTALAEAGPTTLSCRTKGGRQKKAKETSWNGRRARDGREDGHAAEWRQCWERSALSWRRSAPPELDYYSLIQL

B1: Dpr21 (natural protein)
chain: DRGPYFDTSATKNVTSLVGITGHLNCRIKNLGNKTVSWIRHRDLHLLTVSESTYTSDQRFTSIYNKQTGDWSLQIKFPQLRDSGIYECQVSTTPPVGYTMVFSVVEPITSILGGPEIYIDLGSTVNLTCVIKHLPDPPISVQWNHNNQEINYDSPRGGVSVITEKGDITTSYLLIQRASIADSGQYTCLPSNANSKSVNVHILKGD
On to B1, for which the Kd with DIP-β isoform C was 1.55 µM; with DIP-β isoform G it was 5.05 µM.

B2: Dpr15 (natural protein)
chain: TLKPPPTIDDYQTIISQAGTHAYLPCNVKQLVKKPISWLRMRDGHILTVDQTTFIADQRFQSVFSPNPERWSLQIKYVQLKDEGTYECQVSTEPKASAIVHLRIVEPKTELIGESTRHVKAGSQVKLRCIISQALEPPLFINWFYNQKQIYLHNRRGWRTEIERIDLPAEVPTTSTTTTTTTTTASTTTTTTSTTPATPSTTATGSTEGATSSETLNGLVTITRSYILDAISQNDVSELGAAAGVAVATETSTAQLLTEVEATSSTSGTSTGAGLLASTSAAYAAGAAAGITTAATGDSAATAATTSAWLTTMDAEAATTAATTTTTMLPSSSFIKQITTASLIIPAVVKLDSGNYTCSPSNSAPRTIVLHVLNGE
As to B2, the Kd in the experiment with DIP-β isoform C stood at 25.3 µM; in the experiment with DIP-β isoform G it was 159 µM.

B3: Dpr10-A recombinant protein for SPR (printed sequence) (domain or fragment, Drosophila melanogaster)
chain: WNEPYFDLTMPRNITSLVGKSAYLGCRVKHLGNKTVAWIRHRDLHILTVGTYTYTTDQRFQTSYHRDIDEWTLQIKWAQQRDAGVYECQISTQPVRSYSVNLNIVDLIDAETSDIMQQYYNDDAFYIAENRVYQSSNDEFAGMFGPIQTVAVPTATILGGPDLYVDKGSTINLTCIIKFSPEPPTHIFWYHQDKVLSEETSGGRLKFKTIKSEETKSILLIYDADLLHSGKYSCYPSNTEIASIRVHVLQGE
notes: Dpr10 isoform A, Drosophila melanogaster; Monomeric protein was used for SPR; analyte; not shown: His6, C-terminal, kept
As for B3, the Kd in experiment [1] is 5.76 µM.

B4: Dpr6 (natural protein)
chain: WMEPYFDPSTPRNVTALMGKSAYLSCRVRNLANKTVSWIRHRDIHILTVGSYTYTSDQRFQATHHQDTEDWTLQIKWAQKRDAGMYECQISTQPVRSYFVRLNVVVPTATILGGPDLHVDKGSTINLTCTVKFSPEPPAYIFWYHHEEVINYDSSRGGVSVITEKGDVTTSFLLIQNADLADSGKYSCAPSNADVASVRVHVLNGE
Regarding B4, the Kd with DIP-β isoform C turned out to be 22 µM; with DIP-β isoform G it was 15.2 µM.

For the origin of these results see publication PMC12135937, “Members of the DIP and Dpr adhesion protein families use cis inhibition to shape neural development in Drosophila” (PLOS Biology, 2025).
